{
  "source": "patent US20050142566A1",
  "about": "(CHILDREN S MEDICAL CENTER, published 2005)",
  "biological_target": "T1, CatSper1 (UniProt Q91ZR5 1-686)",
  "T1 sequence (looked up)": "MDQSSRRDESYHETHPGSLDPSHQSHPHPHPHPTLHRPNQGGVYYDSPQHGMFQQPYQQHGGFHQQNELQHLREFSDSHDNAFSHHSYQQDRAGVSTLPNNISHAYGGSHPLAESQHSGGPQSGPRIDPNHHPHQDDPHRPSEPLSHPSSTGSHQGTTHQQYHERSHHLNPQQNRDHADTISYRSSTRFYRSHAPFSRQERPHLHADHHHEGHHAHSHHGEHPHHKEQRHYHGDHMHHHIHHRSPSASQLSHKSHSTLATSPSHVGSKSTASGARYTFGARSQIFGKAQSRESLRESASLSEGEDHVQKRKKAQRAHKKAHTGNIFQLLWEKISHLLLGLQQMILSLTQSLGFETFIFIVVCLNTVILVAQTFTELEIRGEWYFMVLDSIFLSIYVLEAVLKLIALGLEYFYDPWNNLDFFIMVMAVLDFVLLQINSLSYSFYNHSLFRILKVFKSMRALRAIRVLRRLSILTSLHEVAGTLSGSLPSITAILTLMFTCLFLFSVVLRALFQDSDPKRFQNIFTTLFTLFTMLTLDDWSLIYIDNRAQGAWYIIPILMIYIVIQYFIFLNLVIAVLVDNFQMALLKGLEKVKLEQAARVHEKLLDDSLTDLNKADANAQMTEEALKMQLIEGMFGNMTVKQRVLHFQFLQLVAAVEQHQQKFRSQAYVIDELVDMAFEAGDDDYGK",
  "assay": "co-immunoprecipitation from testis detergent extracts, immunoblot with CatSper1 antibody",
  "experimental": "For immunoprecipitation, samples were extracted with TBS (20 mM Tris-HCl, 150 mM NaCl, pH 7.4) containing either 1% TX-100 or 1% Zwittergent 3-14 for at least 4 hours at 4° C. The extract was centrifuged at 100,000 ×g for 30 min, and the resultant supernatant solution was incubated for 2 hours with preimmune IgG covalently bound to Protein A agarose (Seize X™, Pierce Chemical Co., Rockford, Ill.). The nonbound fraction was recovered and incubated with peptide reactive antibody (±1.5 μM peptide preincubation)/Protein A agarose overnight with rocking at 4° C. The resulting immune complexes were washed 5 times. SDS-polyacrylamide electrophoresis was according to Laemmli (1970), Nature 227:680-5. Electrophoretically separated samples were transferred to nitrocellulose membranes according to Towbin et al. (1979), Proc. Natl. Acad. Sci. USA 76:4350-4, at 50V for 2 hours, 4° C. Immnunoblots were probed in TBST/2:5% nonfat milk with CatSper2 antibody (1:5000) or CatSper1 (1:2000) antibody. After incubation with, the primary antibody, the blots were rinsed once with TBST/2.5% nonfat milk and washed with TBST (4 changes over 30 min). Blots were then incubated with secondary goat anti-rabbit IgG-HRP conjugate for 1 hour, washed with TBST (3 changes over 30 min), rinsed with TBS (3 times), and the signal detected with chemiluminescence (Pierce Chemical Co., Rockford, Ill.). […]",
  "data": [
    {"binder": "murine CatSper2 protein (SEQ ID NO: 6) (other, also called mouse CatSper2; 68,000 Mr protein) MAQEQGHFQLLRADAIRSKLIDTFSLIEHLQGLSQAVPRHTLREILDPAYQQKLMSGDQEQLVRFSIKPRRMGHITHSRRLLSRLRVRCSRMPPLSLWAGWVLDSSVFSKFIISLIFLNTFVLMVEIELMESTNTALWPVKLALEVADWFILLSFIVEILLMWLASFSLFWKDAWNVFDFFVTLLSLLPELVVLLGVPAHSVWLQLLRVCRVLRSLKLFARFRQIKVILLALVRALKSMTFLLMLLLIFFYIFAVTGVYFFREYSRSTIEGLEYNMFFSDLLNSLVTVFILFTLDHWYAVLQNIWKVPESSRVFSSIYVILWLLLGSIIFRNIIIAMMVTNFQNIRSELSEEMSHLEVQYKADMFKQQIIQRRQHSESLRGTSLGKVSEDIIETSDASDDDDDDDDDDDDDDDDDDDKSDATESDGEESDSENSESENSESEKIDPEKDYAKKSYPEKSHPEKSYPEKSHPEKSYPEKSHPEKSYDEQAEAEKVKEESKEKAYPVSHSISSHGSIAADTAFLENLDWETLVHENLPGLMDMDQDDRIVWPRDSLFRYFELLEKLQYNLEERKKLQEFAVQALMSFEDK", "values": [
      {"measurement": "binding result", "result": "no binding"}
    ]}
  ]
}
